Test results taken from patent CN113880948A.

Target: CA724抗原 (CA724)
Test: biolayer interferometry type kinetics, antibody captured on AMQ biosensor, antigen in solution (diluted 10-fold)

B1: 抗CA724重组抗体 (recombinant anti-CA724 antibody made in Example 1, expressed in Expi293F cells) (antibody, mouse IgG1, kappa, V domains shown)
VH: QVQLQQSDAELVKPGASVKISCKASGYTFTDHAIHWAKQKPEQGLEWIGYISPGNDDIKYNEKFKGKATLTADKSSSTAYMQLNSLTSEDSAVYFCKRSYYGHWGQGTTLTVSS
VL: DIQMTQSPASLSVSVGETVTITCRASENIYSNLAWYQQKQGKSPQLLVYAATNLADGVPSRFSGSGSGTQYSLKINSLQSEDFGSYYCQHFWGTPYTFGGGTRLEIKG
- Kd: 18 nM
- koff: 0.00109 s⁻¹
- kon: 60700 M⁻¹ s⁻¹

B2: 抗CA724单克隆抗体 (anti-CA724 monoclonal antibody purified from the hybridoma of Example 1) (antibody, V domains shown)
VH: QVQLQQSDAELVKPGASVKISCKASGYTFTDHAIHWAKQKPEQGLEWIGYISPGNDDIKYNEKFKGKATLTADKSSSTAYMQLNSLTSEDSAVYFCKRSYYGHWGQGTTLTVSS
VL: DIQMTQSPASLSVSVGETVTITCRASENIYSNLAWYQQKQGKSPQLLVYAATNLADGVPSRFSGSGSGTQYSLKINSLQSEDFGSYYCQHFWGTPYTFGGGTRLEIK
- Kd: 16.4 nM
- koff: 0.000897 s⁻¹
- kon: 54700 M⁻¹ s⁻¹
